Molecular target: HA-tagged DDX6 (designed around the RecA2 region) (UniProt P26196)
Assay: grating-coupled interferometry (GCI); Creoptix WAVEsystem; DDX6 protein immobilised on the sensor chip by amine coupling, 4E-T protein as analyte; PBS/0.01% Tween20; regeneration-free kinetics; blank without DDX6 as reference

Sequence of UniProt P26196 (P26196 whole entry): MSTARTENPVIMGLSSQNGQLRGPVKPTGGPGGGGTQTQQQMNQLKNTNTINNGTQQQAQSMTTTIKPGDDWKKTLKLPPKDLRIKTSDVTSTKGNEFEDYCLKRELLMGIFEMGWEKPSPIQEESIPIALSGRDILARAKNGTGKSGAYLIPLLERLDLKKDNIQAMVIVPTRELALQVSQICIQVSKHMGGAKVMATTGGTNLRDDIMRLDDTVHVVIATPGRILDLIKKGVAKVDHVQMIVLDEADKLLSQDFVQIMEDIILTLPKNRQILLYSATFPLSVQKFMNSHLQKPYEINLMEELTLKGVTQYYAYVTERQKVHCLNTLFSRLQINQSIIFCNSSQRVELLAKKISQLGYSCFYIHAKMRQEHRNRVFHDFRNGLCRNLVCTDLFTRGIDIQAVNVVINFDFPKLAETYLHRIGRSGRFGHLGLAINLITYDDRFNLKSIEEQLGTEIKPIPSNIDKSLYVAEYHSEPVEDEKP

Kd: 774 nM
koff: 0.000278 s⁻¹
kon: 359 M⁻¹ s⁻¹
Substance: HA-tagged 4E-T (designed around the CHD region) (from UniProt Q9NRA8 1-985) (domain or fragment)

From publication PMC9174231
